Assays:
[1] = Forced degradation study of rhNRG-1 (oxidation with H2O2), RP-HPLC; type: physicochemical; conditions: for rhNRG-1 conc.: 0.06% H2O2, RT
Protocol: The API solution was forced to degrade as follow (Table 12):
The samples collected at time point was analyzed by the RP-HPLC.

[2] = pH-stability profile of rhNRG-1 in pH 3 to 10 buffers and DI-water (RP-HPLC, SDS-PAGE); type: physicochemical; conditions: for T90: time to degrade 10% of the initial concentration; for Rate of degradation: zero order, linear regression slope
Protocol: 2.1 Develop a RP-HPLC Method to Determine the Purity of rhNRG-1 Drug Substance.
RhNRG-1, batch 201204001, which contains 1.24 mg/mL rhNRG-1, 20 mM phosphate buffer and 0.5M NaCl, pH 5.5 (“API”) was used for the preparation of standard solution for all HPLC analysis.
In a 15 mL plastic tube, add the API and DI-water or a New Buffer. Mix into a solution containing 0.25 mg/mL rhNRG-1, 10 mM New Buffer, 4 mM phosphate (from the API) and 0.1 M NaCl (from the API).
For 40° C., test by SDS-PAGE after 10 days. Destain I (45% water, 45% methanol, 10% acetic acid, freshly made); 0.1% Coomasic Blue stain; The running gel (12%-15%) serves to separate individual polypeptides into discrete bands.
For 40° C., remove 150 μL and test by HPLC after 28.5, 49 and 77 hr.
For each Cone-vs-time profile, a linear regression analysis was performed and the slope of the regression equation was used to represent the rate of degradation in mg/mL/hr assuming zero order kinetics.
At each pH (3 to 8) and temperature, the estimated degradation rate and T90 (time to degrade 10% of the initial concentration or 0.025 mg/mL) are provided as follow (Table 10): […]

[3] = pH 5.63 (No New Buffer added), 40° C.
[4] = pH 5.63 (No New Buffer added), 60° C.

B1: rhNRG-1: proteins or peptides which consist of amino acid sequence of SEQ ID NO: 2 (protein, listed as Homo sapiens)
chain: SHLVKCAEKEKTFCVNGGECFMVKDLSNPSRYLCKCPNEFTGDRCQNYVMASFYKAEELYQ
- sensitivity to oxidation ([1]; H2O2 exposure): very sensitive to peroxide and prone to oxidation
- rhNRG-1 conc. ([1]; Oxidation exposure 0.3 hours): 0.24 mg/mL
- rhNRG-1 conc. ([1]; Oxidation exposure 2.4 hours): 0.15 mg/mL
- rhNRG-1 conc. ([1]; Oxidation exposure 4.5 hours): 0.10 mg/mL
- rhNRG-1 conc. ([1]; Oxidation exposure 7.1 hours): 0.07 mg/mL
- T90 at the lower pH relative to the one in its original buffer ([2]; lower pH (3.2) vs original buffer (pH 5.5, as is)): about 20 ×
- T90 at the lower pH relative to the one at pH 4.2 ([2]; lower pH (3.2) vs pH 4.2): about 2 ×
- pH of the best stability observed ([2]; pH 3 to 8 study, lowest pH): 3.2
- stability in solution depending on pH ([2]; pH 3 to 10): more stable in acid solution (PH 3.0 to 7.0) than in basic solution (PH 8.0 to 10.0)
- % over initial conc. ([2]; pH 3.19 (Sodium phosphate), 40° C., 28.5 hr): 97%
- % over initial conc. ([2]; pH 3.19 (Sodium phosphate), 40° C., 49 hr): 97%
- % over initial conc. ([2]; pH 3.19 (Sodium phosphate), 40° C., 77 hr): 96%
- % over initial conc. ([2]; pH 3.19 (Sodium phosphate), 60° C., 7.5 hr): 98%
- % over initial conc. ([2]; pH 3.19 (Sodium phosphate), 60° C., 24 hr): 93%
- % over initial conc. ([2]; pH 3.19 (Sodium phosphate), 60° C., 48 hr): 89%
- % over initial conc. ([2]; pH 3.19 (Sodium phosphate), 60° C., 65 hr): 82%
- % over initial conc. ([2]; pH 3.19 (Sodium phosphate), 60° C., 77 hr): 72%
- Initial Conc ([2]; pH 3.19 (Sodium phosphate)): 0.241 mg/mL
- T90 ([2]; pH 3.19, 40° C.): 10.4 days
- Rate of degradation ([2]; pH 3.19, 40° C.): 0.0001 mg/mL/h
- T90 ([2]; pH 3.19, 60° C.): 1.7 days
- Rate of degradation ([2]; pH 3.19, 60° C.): 0.0006 mg/mL/h
- % over initial conc. ([2]; pH 4.17 (Sodium acetate), 40° C., 28.5 hr): 97%
- % over initial conc. ([2]; pH 4.17 (Sodium acetate), 40° C., 49 hr): 97%
- % over initial conc. ([2]; pH 4.17 (Sodium acetate), 40° C., 77 hr): 93%
- % over initial conc. ([2]; pH 4.17 (Sodium acetate), 60° C., 7.5 hr): 99%
- % over initial conc. ([2]; pH 4.17 (Sodium acetate), 60° C., 24 hr): 93%
- % over initial conc. ([2]; pH 4.17 (Sodium acetate), 60° C., 48 hr): 91%
- % over initial conc. ([2]; pH 4.17 (Sodium acetate), 60° C., 65 hr): 84%
- % over initial conc. ([2]; pH 4.17 (Sodium acetate), 60° C., 77 hr): 78%
- Initial Conc ([2]; pH 4.17 (Sodium acetate)): 0.247 mg/mL
- T90 ([2]; pH 4.17, 40° C.): 5.2 days
- Rate of degradation ([2]; pH 4.17, 40° C.): 0.0002 mg/mL/h
- T90 ([2]; pH 4.17, 60° C.): 1.7 days
- Rate of degradation ([2]; pH 4.17, 60° C.): 0.0006 mg/mL/h
- % over initial conc. ([2]; pH 5.08 (Sodium acetate), 40° C., 28.5 hr): 94%
- % over initial conc. ([2]; pH 5.08 (Sodium acetate), 40° C., 49 hr): 94%
- % over initial conc. ([2]; pH 5.08 (Sodium acetate), 40° C., 77 hr): 86%
- % over initial conc. ([2]; pH 5.08 (Sodium acetate), 60° C., 7.5 hr): 98%
- % over initial conc. ([2]; pH 5.08 (Sodium acetate), 60° C., 24 hr): 92%
- % over initial conc. ([2]; pH 5.08 (Sodium acetate), 60° C., 48 hr): 93%
- % over initial conc. ([2]; pH 5.08 (Sodium acetate), 60° C., 65 hr): 82%
- % over initial conc. ([2]; pH 5.08 (Sodium acetate), 60° C., 77 hr): 82%
- Initial Conc ([2]; pH 5.08 (Sodium acetate)): 0.242 mg/mL
- T90 ([2]; pH 5.08, 40° C.): 2.6 days
- Rate of degradation ([2]; pH 5.08, 40° C.): 0.0004 mg/mL/h
- T90 ([2]; pH 5.08, 60° C.): 1.7 days
- Rate of degradation ([2]; pH 5.08, 60° C.): 0.0006 mg/mL/h
- % over initial conc. ([2]; pH 5.47 (Histidine), 60° C., 7.5 hr): 95%
- % over initial conc. ([2]; pH 5.47 (Histidine), 60° C., 24 hr): 92%
- % over initial conc. ([2]; pH 5.47 (Histidine), 60° C., 48 hr): 86%
- % over initial conc. ([2]; pH 5.47 (Histidine), 60° C., 65 hr): 79%
- % over initial conc. ([2]; pH 5.47 (Histidine), 60° C., 77 hr): 79%
- Initial Conc ([2]; pH 5.47 (Histidine)): 0.248 mg/mL
- T90 ([2]; pH 5.47, 60° C.): 1.5 days
- Rate of degradation ([2]; pH 5.47, 60° C.): 0.0007 mg/mL/h
- % over initial conc. ([2]; pH 5.63 (No New Buffer added), 40° C., 28.5 hr): 92%
- % over initial conc. ([2]; pH 5.63 (No New Buffer added), 40° C., 49 hr): 91%
- % over initial conc. ([2]; pH 5.63 (No New Buffer added), 40° C., 77 hr): 38%
- T90 [2, 3]: 0.5 days
- Rate of degradation [2, 3]: 0.0019 mg/mL/h
- % over initial conc. ([2]; pH 5.63 (No New Buffer added), 60° C., 7.5 hr): 95%
- % over initial conc. ([2]; pH 5.63 (No New Buffer added), 60° C., 24 hr): 84%
- % over initial conc. ([2]; pH 5.63 (No New Buffer added), 60° C., 48 hr): 82%
- % over initial conc. ([2]; pH 5.63 (No New Buffer added), 60° C., 65 hr): 69%
- % over initial conc. ([2]; pH 5.63 (No New Buffer added), 60° C., 77 hr): 64%
- T90 [2, 4]: 1.0 days
- Rate of degradation [2, 4]: 0.001 mg/mL/h
- Initial Conc ([2]; pH 5.63 (No New Buffer added)): 0.251 mg/mL
- % over initial conc. ([2]; pH 6.02 (Sodium citrate), 40° C., 28.5 hr): 94%
- % over initial conc. ([2]; pH 6.02 (Sodium citrate), 40° C., 49 hr): 94%
- % over initial conc. ([2]; pH 6.02 (Sodium citrate), 40° C., 77 hr): 86%
- % over initial conc. ([2]; pH 6.02 (Sodium citrate), 60° C., 7.5 hr): 95%
- % over initial conc. ([2]; pH 6.02 (Sodium citrate), 60° C., 24 hr): 88%
- % over initial conc. ([2]; pH 6.02 (Sodium citrate), 60° C., 48 hr): 85%
- % over initial conc. ([2]; pH 6.02 (Sodium citrate), 60° C., 65 hr): 72%
- % over initial conc. ([2]; pH 6.02 (Sodium citrate), 60° C., 77 hr): 72%
- Initial Conc ([2]; pH 6.02 (Sodium citrate)): 0.251 mg/mL
- T90 ([2]; pH 6.02, 40° C.): 2.6 days
- Rate of degradation ([2]; pH 6.02, 40° C.): 0.0004 mg/mL/h
- T90 ([2]; pH 6.02, 60° C.): 1.2 days
- Rate of degradation ([2]; pH 6.02, 60° C.): 0.0009 mg/mL/h
- % over initial conc. ([2]; pH 7.00 (Sodium phosphate), 40° C., 28.5 hr): 92%
- % over initial conc. ([2]; pH 7.00 (Sodium phosphate), 40° C., 49 hr): 87%
- % over initial conc. ([2]; pH 7.00 (Sodium phosphate), 40° C., 77 hr): 82%
- % over initial conc. ([2]; pH 7.00 (Sodium phosphate), 60° C., 7.5 hr): 90%
- % over initial conc. ([2]; pH 7.00 (Sodium phosphate), 60° C., 24 hr): 76%
- % over initial conc. ([2]; pH 7.00 (Sodium phosphate), 60° C., 48 hr): 65%
- Initial Conc ([2]; pH 7.00 (Sodium phosphate)): 0.251 mg/mL
- T90 ([2]; pH 7.00, 40° C.): 1.7 days
- Rate of degradation ([2]; pH 7.00, 40° C.): 0.0006 mg/mL/h
- T90 ([2]; pH 7.00, 60° C.): 0.7 days
- Rate of degradation ([2]; pH 7.00, 60° C.): 0.0015 mg/mL/h
- % over initial conc. ([2]; pH 8.07 (Sodium bicarbonate), 40° C., 28.5 hr): 89%
- % over initial conc. ([2]; pH 8.07 (Sodium bicarbonate), 40° C., 49 hr): 83%
- % over initial conc. ([2]; pH 8.07 (Sodium bicarbonate), 40° C., 77 hr): 68%
- % over initial conc. ([2]; pH 8.07 (Sodium bicarbonate), 60° C., 7.5 hr): 68%
- % over initial conc. ([2]; pH 8.07 (Sodium bicarbonate), 60° C., 24 hr): 4%
- Initial Conc ([2]; pH 8.07 (Sodium bicarbonate)): 0.253 mg/mL
- T90 ([2]; pH 8.07, 40° C.): 1.0 days
- Rate of degradation ([2]; pH 8.07, 40° C.): 0.001 mg/mL/h
- T90 ([2]; pH 8.07, 60° C.): 0.2 days
- Rate of degradation ([2]; pH 8.07, 60° C.): 0.0061 mg/mL/h
